This is an account of results in patent publication US20260092124A1 (published 2026).

The term Kd denotes the equilibrium constant for the complex coming apart. Higher therefore signals lower affinity.

This experiment addresses human CD40 (human, UniProt P25942 21-277). Briefly: cell binding (GpL luciferase, HT1080-CD40); single representative experiment.

Chain of human CD40 (P25942 21-277): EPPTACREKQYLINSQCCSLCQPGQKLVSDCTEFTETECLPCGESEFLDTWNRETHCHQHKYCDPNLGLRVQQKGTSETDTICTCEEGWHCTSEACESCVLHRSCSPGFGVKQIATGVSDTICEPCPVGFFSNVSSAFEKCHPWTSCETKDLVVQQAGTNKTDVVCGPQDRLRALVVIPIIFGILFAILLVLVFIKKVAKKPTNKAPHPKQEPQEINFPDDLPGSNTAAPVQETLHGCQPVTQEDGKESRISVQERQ

B1: GpL-CD40L, a fusion protein of soluble CD40L and Gaussia princeps luciferase (GpL) (ligand)
chain: GDQNPQIAAHVISEASSKTTSVLQWAEKGYYTMSNNLVTLENGKQLTVKRQGLYYIYAQVTFCSNREASSQAPFIASLCLKSPGRFERILLRAANTHSSAKPCGQQSIHLGGVFELQPGASVFVNVTDPSQVSHGTGFTSFGLLKL
B1 displayed a dissociation constant Kd of 0.14 mg/L.
